Data reported in PMC9205196.

Experiments:
[1] = biological target: SDC1_(37): deglycosylated murine syndecan-1 ectodomain with p-propargyltyrosine at residue 37 (mouse) (UniProt P18828); assay: ELISA
[2] = biological target: SDC1_(37HEP): murine syndecan-1 ectodomain with heparin conjugated at residue 37 (mouse) (UniProt P18828); assay: ELISA
[3] = biological target: SDC1_(47HEP): murine syndecan-1 ectodomain with heparin conjugated at residue 47 (mouse) (UniProt P18828); assay: ELISA
[4] = biological target: SDC1_(47HS): murine syndecan-1 ectodomain with heparan sulfate conjugated at residue 47 (mouse) (UniProt P18828); assay: ELISA
[5] = biological target: FGFR1, biotinylated (UniProt P11362); assay: AlphaScreen or HTRF
[6] = biological target: Recombinant human FGF2 (fibroblast growth factor-2), biotinylated (human); assay: AlphaScreen or HTRF
[7] = biological target: Vitronectin (VN), biotinylated (UniProt P04004); assay: AlphaScreen or HTRF

Row | EC50 [1] | EC50 [2] | EC50 [3] | EC50 [4] | EC50 [5] | EC50 of ternary complex formation with soluble non-tagged FGF2 [5] | EC50 [6] | EC50 [7] | Substance
1 | 100 nM | 10 nM | 5 nM | 40 nM |  |  |  |  | Recombinant human αvβ3 integrin (from UniProt P06756-1 31-992; P05106 27-718) (complex)
2 |  |  |  |  | > 20 nM | > 20 nM | > 100 nM | > 100 nM | SDC1_(37): deglycosylated murine syndecan-1 ectodomain with p-propargyltyrosine at residue 37 (from UniProt P18828 23-255) (domain or fragment)
3 |  |  |  |  | 0.3 nM | 0.007 nM | 0.4 nM | 1 nM | SDC1_(37HEP): murine syndecan-1 ectodomain with heparin conjugated at residue 37 (from UniProt P18828 23-255) (domain or fragment)
4 |  |  |  |  | 0.2 nM | 0.007 nM | 0.3 nM |  | SDC1_(47HEP): murine syndecan-1 ectodomain with heparin conjugated at residue 47 (from UniProt P18828 23-255) (domain or fragment)
